The values that follow come from patent publication US20180326084A1 (Genmab, published 2018).

Test [1] concerns the target T1, Homo sapiens AXL-Mus musculus Ig2 domain (p33-AXL-mIg2) (human-mouse chimera, UniProt P30530 26-894).
T1 construct: Expressed in HEK293F cells; also called hsAXL-mmIg2; TH1021-mIg2
T1 chain: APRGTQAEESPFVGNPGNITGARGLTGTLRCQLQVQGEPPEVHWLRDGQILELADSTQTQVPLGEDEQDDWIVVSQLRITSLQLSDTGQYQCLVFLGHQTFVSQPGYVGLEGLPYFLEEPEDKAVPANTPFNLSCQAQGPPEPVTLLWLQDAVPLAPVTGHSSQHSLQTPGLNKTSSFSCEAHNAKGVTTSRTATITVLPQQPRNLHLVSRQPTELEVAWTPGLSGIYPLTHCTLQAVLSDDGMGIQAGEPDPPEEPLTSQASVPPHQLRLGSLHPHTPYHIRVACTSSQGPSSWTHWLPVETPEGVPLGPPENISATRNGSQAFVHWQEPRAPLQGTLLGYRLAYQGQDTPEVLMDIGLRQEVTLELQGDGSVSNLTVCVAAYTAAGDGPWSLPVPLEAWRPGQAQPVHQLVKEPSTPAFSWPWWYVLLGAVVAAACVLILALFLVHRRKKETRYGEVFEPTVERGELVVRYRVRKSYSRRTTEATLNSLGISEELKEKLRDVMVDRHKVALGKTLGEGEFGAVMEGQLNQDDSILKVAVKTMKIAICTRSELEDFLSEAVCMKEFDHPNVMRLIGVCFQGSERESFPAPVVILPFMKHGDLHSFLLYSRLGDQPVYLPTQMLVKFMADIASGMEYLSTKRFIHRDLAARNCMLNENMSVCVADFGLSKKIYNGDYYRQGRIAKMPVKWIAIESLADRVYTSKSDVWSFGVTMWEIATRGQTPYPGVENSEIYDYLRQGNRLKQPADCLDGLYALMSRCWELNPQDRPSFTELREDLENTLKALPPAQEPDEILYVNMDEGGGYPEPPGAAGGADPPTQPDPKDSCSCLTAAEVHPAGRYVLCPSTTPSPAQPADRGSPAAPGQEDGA
Put plainly: flow cytometry, 1 µg/mL antibody, transfected HEK293F cells.

In a further test the target is T2, human AXL (full length) (human, UniProt P30530 26-894).
T2 construct: also called TH1021-AXL; TH1021-hAXL
Put plainly: flow cytometry, HEK293T cells transiently transfected with human AXL.

Test [2] has as its target T3, Homo sapiens AXL-Mus musculus Ig1 domain (p33-AXL-mIg1) (human-mouse chimera, UniProt P30530 8-894).
T3 construct: Expressed in HEK293F cells; also called hsAXL-mmIg1; hsAXL-mmIgl
T3 chain: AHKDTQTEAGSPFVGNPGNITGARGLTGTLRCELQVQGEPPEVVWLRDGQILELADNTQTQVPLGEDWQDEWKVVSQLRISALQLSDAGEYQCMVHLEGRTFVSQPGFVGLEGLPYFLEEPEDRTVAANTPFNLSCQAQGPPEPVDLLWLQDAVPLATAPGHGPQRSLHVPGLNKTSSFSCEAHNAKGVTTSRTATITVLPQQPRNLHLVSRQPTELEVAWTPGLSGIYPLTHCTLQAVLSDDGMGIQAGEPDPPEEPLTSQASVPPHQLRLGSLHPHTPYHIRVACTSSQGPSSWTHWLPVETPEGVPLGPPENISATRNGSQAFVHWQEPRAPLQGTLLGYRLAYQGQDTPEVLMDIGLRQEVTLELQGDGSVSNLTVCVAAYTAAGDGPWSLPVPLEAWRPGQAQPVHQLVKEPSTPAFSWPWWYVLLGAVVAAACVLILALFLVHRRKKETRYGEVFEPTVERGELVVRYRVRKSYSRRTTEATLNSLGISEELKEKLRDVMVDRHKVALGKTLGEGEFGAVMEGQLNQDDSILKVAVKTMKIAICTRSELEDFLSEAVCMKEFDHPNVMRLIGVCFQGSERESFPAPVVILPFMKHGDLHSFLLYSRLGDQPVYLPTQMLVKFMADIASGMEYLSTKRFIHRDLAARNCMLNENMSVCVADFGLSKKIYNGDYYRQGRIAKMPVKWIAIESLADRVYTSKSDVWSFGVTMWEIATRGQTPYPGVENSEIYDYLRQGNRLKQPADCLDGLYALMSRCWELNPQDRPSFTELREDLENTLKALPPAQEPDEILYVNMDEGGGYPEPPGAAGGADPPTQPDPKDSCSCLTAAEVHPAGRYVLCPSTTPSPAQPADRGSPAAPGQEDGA
Nature of the test: flow cytometry, 1 µg/mL antibody, transfected HEK293F cells. (In general: Flow cytometry measures light scatter and fluorescence of single cells or particles in a stream.)

The target in test [3] is T4, Homo sapiens AXL-Mus musculus FN2 domain (p33-AXL-mFN2) (human-mouse chimera, UniProt P30530 26-894).
T4 construct: Expressed in HEK293F cells; also called hsAXL-mmFN2; TH1021-mFN2
T4 chain: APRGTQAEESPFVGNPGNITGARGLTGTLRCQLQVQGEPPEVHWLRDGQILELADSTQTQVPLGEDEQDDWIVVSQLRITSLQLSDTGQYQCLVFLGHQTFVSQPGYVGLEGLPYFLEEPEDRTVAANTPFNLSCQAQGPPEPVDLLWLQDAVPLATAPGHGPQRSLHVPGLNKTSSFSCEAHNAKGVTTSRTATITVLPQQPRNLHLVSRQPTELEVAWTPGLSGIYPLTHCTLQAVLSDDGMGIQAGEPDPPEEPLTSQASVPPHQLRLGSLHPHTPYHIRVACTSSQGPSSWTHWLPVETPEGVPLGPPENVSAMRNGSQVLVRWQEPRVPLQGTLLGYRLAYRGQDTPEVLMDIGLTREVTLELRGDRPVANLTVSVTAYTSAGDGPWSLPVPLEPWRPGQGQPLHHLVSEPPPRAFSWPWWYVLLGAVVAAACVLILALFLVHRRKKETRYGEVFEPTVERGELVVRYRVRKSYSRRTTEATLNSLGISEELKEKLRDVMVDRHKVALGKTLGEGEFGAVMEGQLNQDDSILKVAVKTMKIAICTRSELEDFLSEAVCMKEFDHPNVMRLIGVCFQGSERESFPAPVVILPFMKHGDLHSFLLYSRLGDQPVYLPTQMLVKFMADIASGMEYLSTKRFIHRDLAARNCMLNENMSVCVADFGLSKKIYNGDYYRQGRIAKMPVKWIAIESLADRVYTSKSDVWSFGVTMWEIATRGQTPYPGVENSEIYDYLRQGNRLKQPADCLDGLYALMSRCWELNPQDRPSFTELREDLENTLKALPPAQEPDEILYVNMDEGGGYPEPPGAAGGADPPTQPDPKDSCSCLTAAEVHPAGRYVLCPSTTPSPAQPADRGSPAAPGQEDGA
Described as above.

B1: IgG1-AXL-183 (antibody, V domains shown)
VH: QVQLQQWGAGLLKPSETLSLTCAVYGGSFSGYYWSWIRQPPGKGLEWIGEINQSGSTNYNPSLKSRVTISVDTSKNQFSLKLSSVTAADTSVYYCASGNWDHFFDYWGQGTLVTVSS
VL: DIQMTQSPSSVSASVGDRVTITCRASQGISSWLAWYQHKPGKAPKLLIYATSSLQSGVTSRFSGSGSGTDFTLTISSLQPEDFATYYCQQAKSFPWTFGQGTKVEIK
One may read the EC50 (read off the curve) as the concentration giving half of the maximal effect. On to B1, for which the binding result in test [1], in test [2] and in test [3] was “binds” in each case. Besides, the “EC50 (read off the curve)” value with human AXL (full length) was ~0.1 µg/mL.

B2: IgG1-AXL-148 (antibody, V domains shown)
VH: EVQLLESGGGLVQPGGSLRLSCAASGFTFSSYAMTWVRQAPGKGLEWVSAISISGGSTFYADSVKGRFTISRDNSKNTLYLQMNSLRAEDTAVYYCRGYSGYVYDAFDFWGQGTMVTVSS
VL: DIQMTQSPSSLSASVGDRVTITCRASQGISNWLAWYQQKPEKAPKSLIYAASSLQSGVPSRFSGSGSGTDFTLTISSLQPEDFATYYCQQYNSYPLTFGGGTKVEIK
Consider B2, for which the binding result in test [2] and in test [3] was “binds” throughout.

B3: IgG1-AXL-726 (antibody, V domains shown)
VH: QVQLQQWGAGLLKPSETLSLTCAIDGGSFSGYYWSWIRQPPGKGLEWIGEISHSGRTNYNPSLKSRVTISIDTSKNQFSLKLSSVAAADTAVYYCARFITMIRGAIITHFDYWGQGALVTVSS
VL: DIQMTQSPSSLSASVGDRVTITCRASQGISSWLAWYQQKPEKAPKSLIYAASSLQSGVPSRFSGSGSGTDFTLTISSLQPEDFATYYCQQYHSYPYTFGQGTKLEIK
As for B3, the binding result in test [1] and in test [2] was “binds” each time. Besides, the concentration giving a half-maximal response (EC50 (read off the curve)) with human AXL (full length) is ~0.09 µg/mL.

B4: IgG1-AXL-733 (antibody, V domains shown)
VH: QVQLVESGGGVVQPGRSLRLSCAASGFSFSTYAMHWVRQAPGKGLEWVAVISYDGDNKYSADSVKGRFTISRDNSKNTLYLQMNSLRAEDTAVYYCARGRKLGIDAFDIWGQGTMVTVSS
VL: AIQLTQSPSSLSASVGDRVTITCRASQGISSALAWYQQKPGKAPKLLIYDASSLESGVPSRFSGSGSGTDFTLTISGLQPEDFATYYCQQFNSYPFTFGPGTKVDIK
As for B4, the binding result in test [1], in test [2] and in test [3] was “binds” throughout.
